# Measurements: patent publication US20190269793
# T1: Vaccinia virus E3
# T1 chain: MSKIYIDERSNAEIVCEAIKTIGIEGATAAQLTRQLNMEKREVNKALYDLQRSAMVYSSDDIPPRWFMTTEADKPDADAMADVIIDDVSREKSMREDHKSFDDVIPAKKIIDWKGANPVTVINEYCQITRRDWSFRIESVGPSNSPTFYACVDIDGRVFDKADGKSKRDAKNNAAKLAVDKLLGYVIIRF
# T2: Vaccinia virus K3
# T2 chain: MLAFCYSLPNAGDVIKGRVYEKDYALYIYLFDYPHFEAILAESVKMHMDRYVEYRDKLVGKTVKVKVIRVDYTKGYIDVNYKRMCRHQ
# B1: RNA-dependent protein kinase (PKR) (protein)
# chain: AGDLSAGFFMEELNTYRQKQGVVLKYQELPNSGPPHDRRFTFQVIIDGREFPEGEGRSKKEAKNAAAKLAVEILNKEKKAVSPLLLTTTNSSEGLSMGNYIGLINRIAQKKRLTVNYEQCASGVHGPEGFHYKCKMGQKEYSIGTGSTKQEAKQLAAKLAYLQILSEETSVKSDYLSSGSFATTCESQSNSLVTSTLASESSSEGDFSADTSEINSNSDSLNSSSLLMNGLRNNQRKAKRSLAPRFDLPDMKETKYTVDKRFGMDFKEIELIGSGGFGQVFKAKHRIDGKTYVIKRVKYNNEKAEREVKALAKLDHVNIVHYNGCWDGFDYDPETSDDSLESSDYDPENSKNSSRSKTKCLFIQMEFCDKGTLEQWIEKRRGEKLDKVLALELFEQITKGVDYIHSKKLIHRDLKPSNIFLVDTKQVKIGDFGLVTSLKNDGKRTRSKGTLRYMSPEQISSQDYGKEVDLYALGLILAELLHVCDTAFETSKFFTDLRDGIISDIFDKKEKTLLQKLLSKKPEDRPNTSEILRTLTVWKKSPEKNERHTC
# What was measured:
# [1] = target: T1, Vaccinia virus E3
# [2] = target: T2, Vaccinia virus K3
protein,measurement,setting,value
B1,PKR autophosphorylation (Western blot with phospho-PKR specific antibody),[1],E3 and K3 reduce PKR autophosphorylation
same,PKR autophosphorylation (Western blot with phospho-PKR specific antibody),[2],E3 and K3 reduce PKR autophosphorylation
